Positions count from the first letter of the chain named.

What is called Kd is the equilibrium constant for the complex coming apart. Lower therefore signals higher affinity. By koff is commonly meant the first-order rate constant of dissociation. Low values mean slow dissociation, high ones fast dissociation. For orientation: kon means the second-order rate constant of association. Lower therefore signals slow association. A word on the IC50: it is the concentration that gives 50% inhibition. The term EC50 (read off the curve) denotes the concentration needed to bring the measured effect to its halfway point. Read a low EC50 (read off the curve) as a more potent agent.

Assay [1] concerns the target T1, human IL12Rβ1, cell-expressed (human, UniProt P42701 24-662). The assay is described as follows: cell-based or functional assay.
In assay [2] the target is T1, human IL12Rβ1, cell-expressed. The assay is described as follows: cell-based or functional assay. This is another data set of the same source.
The target of assay [3] is T2, human IL12Rβ1 extracellular domain Fc-fusion (human, UniProt P42701 24-545).
T2 construct: extracellular domain; bought; also called IL12Rβ1-Fc; hIL-12Rβ1-Fc; not shown: Fc part, captured by anti-hIgG
The assay is described as follows: SPR Biacore T100, captured IL12Rβ1-Fc. (Surface plasmon resonance follows binding to a sensor surface in real time, without labels.)

Assay [4] addresses T2, human IL12Rβ1 extracellular domain …. The assay is described as follows: competition ELISA, coated IL-12 + IL12Rβ1-Fc.
Assay [5] has the same target. The assay is described as follows: competition ELISA, coated IL-23 + IL12Rβ1-Fc.
Assay [6] shares this target. The assay is described as follows: competition ELISA, coated IL-12 + 2 nM IL12Rβ1-Fc. On the technique in general: In an ELISA, binding on a coated surface is turned into a signal by an enzyme label.
For assay [7] the target is unchanged. The assay is described as follows: competition ELISA, coated IL-23 + 2 nM IL12Rβ1-Fc.
In assay [8] the target is T3, human CD4, cell-expressed (human, UniProt P01730 26-458).
T3 construct: whole, on cells
Description: flow cytometry on MOLM-13 cells (CD4, no IL12R or IL23R), lower left panel.

Assay [9] addresses T4, human IL12Rβ2, cell-expressed (human, UniProt Q99665 24-862).
T4 sequence (looked up): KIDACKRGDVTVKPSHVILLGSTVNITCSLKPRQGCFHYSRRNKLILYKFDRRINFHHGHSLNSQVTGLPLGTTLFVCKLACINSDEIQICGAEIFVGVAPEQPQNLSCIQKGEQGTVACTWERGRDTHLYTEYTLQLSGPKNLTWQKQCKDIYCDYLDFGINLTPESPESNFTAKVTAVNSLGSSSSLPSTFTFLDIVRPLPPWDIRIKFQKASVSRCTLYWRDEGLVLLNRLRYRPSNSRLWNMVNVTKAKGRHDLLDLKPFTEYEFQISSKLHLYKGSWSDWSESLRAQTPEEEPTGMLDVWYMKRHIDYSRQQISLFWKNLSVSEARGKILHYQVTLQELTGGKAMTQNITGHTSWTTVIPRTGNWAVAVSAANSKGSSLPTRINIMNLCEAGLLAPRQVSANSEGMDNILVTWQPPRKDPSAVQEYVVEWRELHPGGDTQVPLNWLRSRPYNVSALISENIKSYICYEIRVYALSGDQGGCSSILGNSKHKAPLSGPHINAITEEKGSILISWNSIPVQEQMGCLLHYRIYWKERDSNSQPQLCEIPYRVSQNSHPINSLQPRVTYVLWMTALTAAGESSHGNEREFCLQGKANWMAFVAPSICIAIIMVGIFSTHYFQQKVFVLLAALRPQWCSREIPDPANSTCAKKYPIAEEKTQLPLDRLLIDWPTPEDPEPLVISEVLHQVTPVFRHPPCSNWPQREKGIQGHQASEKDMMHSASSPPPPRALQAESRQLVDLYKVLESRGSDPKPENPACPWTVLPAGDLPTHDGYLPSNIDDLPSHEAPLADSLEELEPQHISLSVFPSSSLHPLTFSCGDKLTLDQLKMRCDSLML
The assay is described as follows: cell-based or functional assay.

The target of assay [10] is T5, human IL12Rβ2 extracellular domain Fc-fusion (human, UniProt Q99665 24-622).
T5 construct: extracellular domain; bought; also called IL12Rβ2-Fc; hIL-12Rβ2-Fc
T5 sequence (looked up): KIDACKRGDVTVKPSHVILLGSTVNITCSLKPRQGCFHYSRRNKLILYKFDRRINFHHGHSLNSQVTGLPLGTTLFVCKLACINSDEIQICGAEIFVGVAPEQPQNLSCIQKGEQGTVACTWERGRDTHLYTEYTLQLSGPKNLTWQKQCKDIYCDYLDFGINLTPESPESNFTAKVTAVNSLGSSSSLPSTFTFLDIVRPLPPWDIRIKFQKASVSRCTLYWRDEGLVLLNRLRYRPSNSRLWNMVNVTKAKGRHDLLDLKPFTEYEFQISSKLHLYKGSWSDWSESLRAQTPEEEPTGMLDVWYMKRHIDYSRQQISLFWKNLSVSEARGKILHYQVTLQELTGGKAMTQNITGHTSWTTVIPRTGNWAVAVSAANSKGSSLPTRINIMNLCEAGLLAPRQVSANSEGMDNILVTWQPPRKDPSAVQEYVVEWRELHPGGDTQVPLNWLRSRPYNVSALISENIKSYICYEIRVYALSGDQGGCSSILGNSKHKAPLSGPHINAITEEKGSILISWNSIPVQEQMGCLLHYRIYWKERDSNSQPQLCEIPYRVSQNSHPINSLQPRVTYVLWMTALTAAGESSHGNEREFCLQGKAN
Description: competition ELISA, coated IL-12 + IL12Rβ2-Fc.

For assay [11], the target named is T5, human IL12Rβ2 extracellular domain …. Description: competition ELISA, ratio to monovalent IL12Rb2#1.
The target in assay [12] is T3, human CD4, cell-expressed. The assay is described as follows: flow cytometry on MOLM-13 cells (CD4, no IL12R or IL23R), upper left panel. On the technique in general: A flow cytometer gives signals particle by particle.
In assay [13] the target is T3, human CD4, cell-expressed. The assay is described as follows: flow cytometry on activated T cells of donor D838 (very high CD4, moderate IL12R), upper left panel.
The target of assay [14] is T5, human IL12Rβ2 extracellular domain …. Description: competition ELISA, ratio to monovalent IL12Rb2#2.
In assay [15] the target is T6, human IL-23R extracellular domain Fc-fusion (human, UniProt Q5VWK5 24-355).
T6 construct: extracellular domain; bought; also called IL-23R-Fc
T6 sequence (looked up): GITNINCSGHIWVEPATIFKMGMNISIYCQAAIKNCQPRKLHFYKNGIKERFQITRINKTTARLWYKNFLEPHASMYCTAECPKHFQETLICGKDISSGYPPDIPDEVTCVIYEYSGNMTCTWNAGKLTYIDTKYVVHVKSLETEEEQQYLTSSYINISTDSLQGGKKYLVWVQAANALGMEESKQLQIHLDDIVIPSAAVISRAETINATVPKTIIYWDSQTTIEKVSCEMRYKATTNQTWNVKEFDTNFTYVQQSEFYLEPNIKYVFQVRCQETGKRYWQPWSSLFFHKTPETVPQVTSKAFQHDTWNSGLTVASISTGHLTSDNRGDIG
Description: SPR Biacore T100, captured IL-23R-Fc.

Assay [16] deals with T6, human IL-23R extracellular domain …. Description: competition ELISA, coated IL-23 + IL-23R-Fc.
The target is the same in assay [17]. The assay is described as follows: competition ELISA, coated IL-23 + 5 nM IL-23R-Fc.
Assay [18] concerns the target T3, human CD4, cell-expressed. Description: flow cytometry on MOLM-13 cells (CD4, no IL12R or IL23R), upper right panel.
For assay [19], the target named is T1, human IL12Rβ1, cell-expressed. Description: flow cytometry on isolated CD8+ T cells of donor D863, anti-Flag detection.

B1: IL12Rb1#31: 148F09 (VHH)
VHH: EVQLVESGGGLVQTGGSLRLSCAASGRTPSIIAMGWFRQTPGKEREFVGEIILSKGFTYYADSVKGRFTISRANAKNTITMYLQMNSLKSEDTAVYYCAARQNWSGNPTRTNEYEYWGQGTLVTVSS
notes: also called IL12Rβ1#31; LG148F09
Take B1: in assay [1], the “IC50, IFNγ release, PBMC D840” value came out at 93.5 nM. Moreover, the “IC50, IL-17 release, PBMC D840” value in assay [2] turned out to be 210 nM. This molecule also came in with a Kd in [3] of 23 nM. The same molecule registered a koff in assay [3] of 0.017 s⁻¹. The molecule further showed a kon in assay [3] of 720000 M⁻¹ s⁻¹. Further, the IC50 came out at 22 nM in assay [4], 10 nM in assay [5], 22 nM in assay [6] and 10 nM in assay [7]. The binding result in assay [8] is given as “no binding (tested: 1E-6 M)”.

B2: CD4#8-35GS-IL12Rb2#1 (bispecific antibody)
chain: EVQLVESGGGSVQPGGSLTLSCGTSGRTFNVMGWFRQAPGKEREFVAAVRWSSTGIYYTQYADSVKSRFTISRDNAKNTVYLEMNSLKPEDTAVYYCAADTYNSNPARWDGYDFRGQGTLVTVSSGGGGSGGGGSGGGGSGGGGSGGGGSGGGGSGGGGSEVQLVESGGRLVQAGDSLRLSCAASGRTFISYRMGWFRQAPGKEREFVAALRWSSSNIDYTYYADSVKGRFSISGDYAKNTVYLQMNSLKAEDTAVYYCAASTRWGVMESDTEYTSWGQGTLVTVSS
notes: defined by its make-up
B2: in assay [9], the “IC50, IFNγ release, PBMC D840” value worked out at 1.9 nM; the “IC50, IFNγ release, T cells D839” value stood at 0.78 nM; the “fold ctrl, IFNγ release, PBMC D840” value came out at 8 fold; the “fold ctrl, IFNγ release, T cells D839” value was determined as 74 fold. In addition, the IC50 in assay [10] turned out to be 10 nM. In [11], the fold ctrl was found to be 0.4 fold. Further, in [12], the concentration for a half-maximal effect (EC50 (read off the curve)) was roughly 1 nM. Besides, the “EC50 (read off the curve)” value in assay [13] is roughly 1 nM.

B3: CD4#8-35GS-IL12Rb2#2 (bispecific antibody)
chain: B2 chain with I190T, A209S, S216G
notes: defined by its make-up
For the molecule B3, in assay [9], the “IC50, IFNγ release, PBMC D840” value came to 2.1 nM; the “IC50, IFNγ release, T cells D839” value came out at 0.76 nM; the “fold ctrl, IFNγ release, PBMC D840” value was determined as 8 fold; the “fold ctrl, IFNγ release, T cells D839” value is 130 fold. The IC50 in assay [10] is 25 nM. In addition, the fold ctrl in assay [14] worked out at 0.6 fold. Further, the “EC50 (read off the curve)” value in assay [12] is roughly 1 nM. Further, in assay [13], the “EC50 (read off the curve)” value was roughly 1 nM.

B4: IL23R#20: 150H07 (VHH)
VHH: EVQLVESGGGLVQAGGSLRLSCAASGRTFSSYAMGWFRQAPGKDREFVAAISWIGESTYYADSVKGRFTISRDNAKNTVYLRMNSLKPEDTAVYYCAADLYYTAYVAAADEYDYWGQGTLVTVSS
notes: bispecifics print NAKNTVY where this entry prints NAKNIVY; also called LG150H07
As to B4, in assay [15], the Kd came out at 78 nM, the off-rate (koff) was 0.23 s⁻¹ and the kon was 3e+06 M⁻¹ s⁻¹. In addition, the IC50 in [16] was 16 nM. For the same molecule, the IC50 in [17] was found to be 16 nM. The binding result in assay [18] is given as “no binding (tested: 1E-6 M)”.

B5: IL12Rb2#1-35GS-CD4#8 (bispecific antibody)
chain: EVQLVESGGRLVQAGDSLRLSCAASGRTFISYRMGWFRQAPGKEREFVAALRWSSSNIDYTYYADSVKGRFSISGDYAKNTVYLQMNSLKAEDTAVYYCAASTRWGVMESDTEYTSWGQGTLVTVSSGGGGSGGGGSGGGGSGGGGSGGGGSGGGGSGGGGSEVQLVESGGGSVQPGGSLTLSCGTSGRTFNVMGWFRQAPGKEREFVAAVRWSSTGIYYTQYADSVKSRFTISRDNAKNTVYLEMNSLKPEDTAVYYCAADTYNSNPARWDGYDFRGQGTLVTVSS
notes: defined by its make-up (Nb1-Nb2)
Consider B5, for which, in assay [9], the “IC50, IFNγ release, PBMC D840” value turned out to be 1.1 nM; the “IC50, IFNγ release, T cells D839” value amounted to 0.11 nM; the “fold ctrl, IFNγ release, PBMC D840” value amounted to 11 fold; the “fold ctrl, IFNγ release, T cells D839” value was 400 fold. Also, in assay [10], the IC50 was 4.8 nM. The fold ctrl in [11] was determined as 0.9 fold. In [12], the “EC50 (read off the curve)” value was roughly 1 nM. The binding result in assay [19] is listed as “no binding (tested: 250 nM)”. Besides, the “EC50 (read off the curve)” value in [13] was roughly 1 nM.

B6: IL12Rb2#2-35GS-CD4#8 (bispecific antibody)
chain: B5 chain with I30T, A49S, S56G
notes: defined by its make-up
In the case of B6, in [9], the “IC50, IFNγ release, PBMC D840” value stood at 1.6 nM; the “IC50, IFNγ release, T cells D839” value worked out at 0.031 nM; the “fold ctrl, IFNγ release, PBMC D840” value came to 30 fold; the “fold ctrl, IFNγ release, T cells D839” value came to 1130 fold. Moreover, the IC50 in [10] stood at 11 nM. The fold ctrl in [14] was found to be 1.4 fold. Besides, the “EC50 (read off the curve)” value in assay [12] is roughly 1 nM. In addition, in [13], the “EC50 (read off the curve)” value is roughly 1 nM.
